The values that follow come from US20120093799A1, “RECOMBINANTLY MODIFIED PLASMIN” (priority 2007, published 2012).

Where “and” joins values, the source holds several entries; their conditions need not be identical. Identical values can stand only once.

Broadly, the Km is the concentration of substrate that gives half-maximal velocity. In general, kcat refers to the maximal rate divided by the concentration of active sites. For orientation: Kd means the equilibrium constant for the complex coming apart.

Data set [1] is described as follows: amidolytic activity with plasmin substrate S-2251, steady-state kinetics. The class given is biochemical. The note with it: substrate S-2251, PBS buffer, pH 7.4, 25° C.; for kcat: for (TAL6003)-plasmin corrected for percent active sites. As for the experimental part:
The amidolytic activity of (TAL6003)-plasmin was examined using the plasmin substrate D-Val-Leu-Lys-p-nitroanilide (S-2251) (DiaPharma, West Chester, Ohio).
(§1) Correcting kcat for percent active sites, a kcat of about 725 min^−1 was determined. This value was very close to the value determined in the same assay for full-length plasmin, 820±23 min^−1 and for micro-plasmin (lacking all five kringles), 795±24 min^−1.

Data set [2] concerns the target T1, α2-antiplasmin (Homo sapiens, UniProt P08697).
T1 sequence (P08697 40-491): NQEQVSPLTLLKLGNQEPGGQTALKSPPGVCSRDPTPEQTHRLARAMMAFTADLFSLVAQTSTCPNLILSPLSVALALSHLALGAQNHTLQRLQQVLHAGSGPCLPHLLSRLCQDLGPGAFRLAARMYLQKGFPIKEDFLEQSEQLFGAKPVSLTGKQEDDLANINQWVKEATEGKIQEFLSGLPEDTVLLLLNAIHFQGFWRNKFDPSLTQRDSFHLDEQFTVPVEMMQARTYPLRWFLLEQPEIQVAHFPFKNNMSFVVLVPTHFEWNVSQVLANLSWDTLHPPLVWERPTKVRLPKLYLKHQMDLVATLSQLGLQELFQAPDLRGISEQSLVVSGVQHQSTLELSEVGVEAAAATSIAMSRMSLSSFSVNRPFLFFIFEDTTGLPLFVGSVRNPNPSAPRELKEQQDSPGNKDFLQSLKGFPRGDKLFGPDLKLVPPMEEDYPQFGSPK
Particulars: from Anonick et al., cited from earlier work.

Data set [3] addresses T1, α2-antiplasmin. The data set can be described thus: rate of inhibition by α2-antiplasmin (method of Wiman and Collen, S-2251 activity at time points). Type of data set: biochemical. Particulars: 22° C. in PBS buffer, pH 7.4. As for the experimental part:
The rate of inhibition of (TAL6003)-plasmin by α2-antiplasmin was determined to be 1.8±0.06×10^7 M^−1 s^−1 using the method of Wiman and Collen (Wiman, B. and D. Collen, Eur. J. Biochem. 84: 573-578 (1978)) in which plasmin and α2-antiplasmin are mixed then assayed for S-2251 activity at specific time points (Table 3).
Literature values are taken from Anonick, et al., Thrombosis Res. 59: 449 (1990). All rates were measured according to the methods published in Anonick, et al.

The nature of data set [4]: binding to lysine-SEPHAROSE 4B column, elution with ε-ACA gradient. As for the experimental part:
FIG. 7 is a chromatogram showing binding of (TAL6003)-plasminogen to lysine-SEPHAROSE™ 4B: 0.5 mg of purified (TAL6003)-plasminogen was applied on the lysine-SEPHAROSE™ 4B column (1×3 cm) equilibrated with Tris-buffered saline, pH 7.4. Bound protein was eluted from the column by a 0-20 mM gradient of ε-aminocaproic acid (ε-ACA) as a single peak. The absorbance at 280 nm and the concentration of ε-ACA, as a function of the effluent volume are presented on the graph.
To confirm the functionality of kringle 1, we determined the binding of TAL6003-plasminogen to lysine-SEPHAROSE™ 4B.

A short description of data set [5]: binding of ε-ACA measured by changes in protein fluorescence. The note with it: 50 mM Tris, 20 mM NaCl, pH 8.0, 25° C.; 0-50 μM ε-ACA. As for the experimental part: To further confirm the functionality of kringle 1, the binding of ε-ACA to (TAL6003)-plasminogen was measured by monitoring the associated changes in protein fluorescence as described by Matsuka et al., Eur. J. Biochem. 190: 93-97 (1990) and Douglas et al., J. Biochemistry 41: 3302-3310 (2002), all incorporated herein by reference. Binding of ε-ACA to kringle 1 of (TAL6003)-plasminogen results in a decrease in fluorescence, likely due to quenching of the tryptophan residues which are part of the lysine-binding site.
To monitor this process, 4 μL to 16 μL aliquots of a concentrated solution of ε-ACA were added to 2 mL of 5 μM (TAL6003)-plasminogen in 50 mM Tris buffer containing 20 mM NaCl, pH 8.0, 25° C. The fluorescence was monitored at an excitation wavelength of 298 nm and an emission wavelength of 340 nm in a FLUOROMAX fluorescence spectrophotometer (Jobin Yvon, Inc., Edison, N.J.); after each addition of ε-ACA, the solution was allowed to equilibrate until no further changes in fluorescence were observed.
The resulting fluorescence values were corrected for dilution and plotted versus the concentration of ε-ACA over a range of 0-50 μM ε-ACA.

The target in a further data set is fibrin. The data set can be described thus: fibrin binding microtiter plate assay (activation by tPA and resulting clot lysis). As for the experimental part: One property of plasminogen is its ability to bind fibrin. In order to determine whether (TAL6003)-plasminogen retains the ability to interact with fibrin, its fibrin-binding properties was tested in a microtiter plate assay in which binding of (TAL6003)-plasminogen to fibrin was assessed by its subsequent activation by tPA and resulting clot lysis. For this purpose, 100 μL of 5 mg/mL fibrinogen was polymerized with thrombin in each well of a microtiter plate. Various concentrations of (TAL6003)-plasminogen was added on top of the fibrin clots and incubated for 1 hour at 37° C. The plate was washed extensively with PBS while the fibrin clots are still intact and attached to the wells. After washing, a 0.1 mg/mL solution of tPA was added to each well and the plate was incubated 2 hours at 37° C. As a result, some of the clots were completely dissolved and some were partially dissolved, while wells with very low amounts of (TAL6003)-plasminogen and control wells remained practically intact. The degree of fibrinolysis was monitored by measuring the 280 nm absorbance of remainders of the initial clots reconstituted in 1 M NaOH. The absorbance values were plotted as a function of (TAL6003)-plasminogen concentration.

The nature of data set [6]: stability and formulation pH. The class given is physicochemical. From the text:
As shown previously for plasmin by Novokhatny et al., J. Thromb. Haemost. […] When mixed with plasma or neutral pH buffers, (TAL6003)-plasmin is quickly re-activated.

Data set [7] in a line: pNPGB active site titration. Type of data set: biochemical. As for the experimental part: as §1
Data set [8] in a line: amidolytic activity with plasmin substrate S-2251, steady-state kinetics. The class given is biochemical. The note with it: S-2251, PBS, pH 7.4, 25° C.; before correction for percent active sites.

B1: plasmin: native full-length human plasmin with five kringle domains and serine protease domain (protein, UniProt P00747 20-580; P00747 581-810, looked up)
Plasmin heavy chain A: EPLDDYVNTQGASLFSVTKKQLGAGSIEECAAKCEEDEEFTCRAFQYHSKEQQCVIMAENRKSSIIIRMRDVVLFEKKVYLSECKTGNGKNYRGTMSKTKNGITCQKWSSTSPHRPRFSPATHPSEGLEENYCRNPDNDPQGPWCYTTDPEKRYDYCDILECEEECMHCSGENYDGKISKTMSGLECQAWDSQSPHAHGYIPSKFPNKNLKKNYCRNPDRELRPWCFTTDPNKRWELCDIPRCTTPPPSSGPTYQCLKGTGENYRGNVAVTVSGHTCQHWSAQTPHTHNRTPENFPCKNLDENYCRNPDGKRAPWCHTTNSQVRWEYCKIPSCDSSPVSTEQLAPTAPPELTPVVQDCYHGDGQSYRGTSSTTTTGKKCQSWSSMTPHRHQKTPENYPNAGLTMNYCRNPDADKGPWCFTTDPSVRWEYCNLKKCSGTEASVVAPPPVVLLPDVETPSEEDCMFGNGKGYRGKRATTVTGTPCQDWAAQEPHRHSIFTPETNPRAGLEKNYCRNPDGDVGGPWCYTTNPRKLYDYCDVPQCAAPSFDCGKPQVEPKKCPGR
Plasmin light chain B: VVGGCVAHPHSWPWQVSLRTRFGMHFCGGTLISPEWVLTAAHCLEKSPRPSSYKVILGAHQEVNLEPHVQEIEVSRLFLEPTRKDIALLKLSSPAVITDKVIPACLPSPNYVVADRTECFITGWGETQGTFGAGLLKEAQLPVIENKVCNRYEFLNGRVQSTELCAGHLAGGTDSCQGDSGGPLVCFEKDKYILQGVTSWGLGCARPNKPGVYVRVSRFVTWIEGVMRNN
modifications: plasmin
notes: native full-length human plasmin with five kringle domains and serine protease domain
With B1, in data set [1], the Km was 220 ± 9 µM and the catalytic constant (kcat) turned out to be 820 ± 23 min⁻¹. Besides, in [1] (listed as full-length plasmin), the turnover number (kcat) came out at 820 ± 23 min⁻¹. Besides, in the data set with α2-antiplasmin [2] (22° C. in PBS buffer, pH 7.4), the “rate of inhibition by α2-antiplasmin (literature value, table)” value was 2.5 ± 0.5 × 10^7 M^−1 s^−1. For the same molecule, the “rate of inhibition by α2-antiplasmin (reported value, text)” value with α2-antiplasmin [2] (Thrombosis Res. 59: 449 (1990)) is given as 2.5×10^7 M^−s^−1.

B2: micro-plasmin: plasmin species lacking all five kringles (protein)
chain: APSFDCGKPQVEPKKCPGRVVGGCVAHPHSWPWQVSLRTRFGMHFCGGTLISPEWVLTAAHCLEKSPRPSSYKVILGAHQEVNLEPHVQEIEVSRLFLEPTRKDIALLKLSSPAVITDKVIPACLPSPNYVVADRTECFITGWGETQGTFGAGLLKEAQLPVIENKVCNRYEFLNGRVQSTELCAGHLAGGTDSCQGDSGGPLVCFEKDKYILQGVTSWGLGCARPNKPGVYVRVSRFVTWIEGVMRNN
As for B2, in [1], the Km worked out at 145 ± 13 µM and the kcat worked out at 795 ± 24 min⁻¹. Moreover, the “rate of inhibition by α2-antiplasmin” value with α2-antiplasmin [3] is 1.8 ± 0.2 × 10^5 M^−1 s^−1.

B3: (TAL6003)-plasminogen: recombinant plasminogen deletion mutant, single kringle plus serine protease domain, amino acid sequence SEQ ID NO: 2, expressed in E. coli (protein)
chain: MRDVVLFEKKVYLSECKTGNGKNYRGTMSKTKNGITCQKWSSTSPHRPRFSPATHPSEGLEENYCRNPDNDPQGPWCYTTDPEKRYDYCDVPQCAAPSFDCGKPQVEPKKCPGRVVGGCVAHPHSWPWQVSLRTRFGMHFCGGTLISPEWVLTAAHCLEKSPRPSSYKVILGAHQEVNLEPHVQEIEVSRLFLEPTRKDIALLKLSSPAVITDKVIPACLPSPNYVVADRTECFITGWGETQGTFGAGLLKEAQLPVIENKVCNRYEFLNGRVQSTELCAGHLAGGTDSCQGDSGGPLVCFEKDKYILQGVTSWGLGCARPNKPGVYVRVSRFVTWIEGVMRNN
modifications: Polypeptide having a single N-terminal kringle domain homologous to a kringle domain of a native human plasminogen
Take B3: the “ε-ACA concentration at elution peak from lysine-SEPHAROSE” value in data set [4] (0-20 mM ε-ACA gradient, single peak) is reported as “about 4 mM”. The “binding to lysine-SEPHAROSE 4B” value in [4] (column equilibrated with Tris-buffered saline, pH 7.4) is “bound to lysine-SEPHAROSE™”. The molecule further gave a dissociation constant (Kd) in [5] of about 19 µM. Further, the EC50 at fibrin (1 hour at 37° C. on fibrin clots, then tPA 2 hours, read-out: C50 of fibrin binding) is about 300 nM. For the same molecule, in the data set with fibrin (relative to full-length plasminogen), the fibrin binding affinity entry is listed as “comparable to that of full-length plasminogen”.

B4: (TAL6003)-plasmin: two-chain active enzyme obtained by streptokinase activation of (TAL6003)-plasminogen (protein)
chain: B3 chain
modifications: Polypeptide having a single N-terminal kringle domain homologous to a kringle domain of a native human plasminogen
As to B4, the “storage stability in the final formulation” value in data set [6] (pH 3.6, acidified with acetic acid-saline, low buffering capacity) is “allows safe storage of active plasmins for prolonged periods of time”. Moreover, the “stability at physiological pH” value in data set [6] (physiological pH) was “prone to auto-degradation”. Besides, the Km in data set [1] worked out at 141 µM. In the data set with α2-antiplasmin [3], the “rate of inhibition by α2-antiplasmin” value is listed as 1.8±0.06×10^7 M^−1 s^−1. In addition, in data set [7], the “percent of functional active sites” value turned out to be 67%. The “kcat for the preparation” value in [8] is “about 725 min−1”.

B5: mini-plasmin: activated mini-plasminogen; domain composition K5-SP (kringle 5 and serine protease domain) (protein)
chain: VAPPPVVLLPDVETPSEEDCMFGNGKGYRGKRATTVTGTPCQDWAAQEPHRHSIFTPETNPRAGLEKNYCRNPDGDVGGPWCYTTNPRKLYDYCDVPQCAAPSFDCGKPQVEPKKCPGRVVGGCVAHPHSWPWQVSLRTRFGMHFCGGTLISPEWVLTAAHCLEKSPRPSSYKVILGAHQEVNLEPHVQEIEVSRLFLEPTRKDIALLKLSSPAVITDKVIPACLPSPNYVVADRTECFITGWGETQGTFGAGLLKEAQLPVIENKVCNRYEFLNGRVQSTELCAGHLAGGTDSCQGDSGGPLVCFEKDKYILQGVTSWGLGCARPNKPGVYVRVSRFVTWIEGVMRNN
In the case of B5, in [1], the Km is 160 ± 30 µM and the kcat was found to be 770 ± 70 min⁻¹. The “rate of inhibition by α2-antiplasmin” value with α2-antiplasmin [3] is 2.4×10^5 M^−1 s^−1 and 2.4 ± 0.5 × 10^5 M^−1 s^−1.
